Test results from a protein production outcome set (Wang et al. 2014).
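Further: failed if final PepcDB status was selected cloned or expressed and not failed if soluble or beyond.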

Experiment: label from the status in PepcDB records
With “MTSRSDAGVFHVRALLLGVLYVCGSLLFVTSMLSKTTTLTNVSSNTCPTVRGVDQIIVLLVDALRPDFVLPALSPHYLDGVECSTVSARGVDGNVNGDRRSTLTYMEENLKRVAHPSHGFFFLSDTPTITAQRIKAITTGTTPAFLEVGTNLNTDEVQIDNILLQLRRRSILLGDDTWLNLFPDHQGNASFWKHTHALPPYNVSDFDTNDATVIADLMPLLLSETAEQAPDDYARLIIGHLLAVDHVGHRHHASHPAMYKKLSDINEMLRNVTKRLREERQTSMRTLLVVFGDHGMTNSGDHGGDSEGERDSFMYAELFESSRDSVHAPVNSSDKFQRKNNLTEKRWEDNIDEDLSRLKACRDVAGVHPGKLSAVHQVDLTPTLALLLGVPIPFSNVGRVIPEMVALSNPDVNMSASEECNWKQLTSYFDEAGLYIKPEWKDSNLSLRRRIAQMSHFARSIRMEIRRDGAFIGSSLCMVTALSLLRNGDIQQVICGRSVLGIGTLFLLVLRLLAVFANSFIIKESVEVFCLLQLLLIAALFVAPTKGGGRHASFLIVILLVLLRVAVPLVSRERSHITHTAEATSHLEMWLAKQFPEFHYNSVGIILGAALFVFSAPTMPHRLMGIVLGTVAAVCYGQPLIHHIGPFVFFALTFFFRGMGPLRYTALVLWSSSLCNDNYVASASIAVSGVLLPVVLTATRHLPVVPQALMLHLYMWVSFFAQGNQCLLNTVDLNASFVGLPFNSVALGSVFVLSRLCNAFLFAPIAVMITYGTDRARGWRVCYLLLYITLAQSAVSSFNGYIQKSHLMFFPIFCPKFIFDFCIGMAACIGYALAALLA” the protein production was “failed”.
For “MTSRTRDTDTDRATDTDTDRATATLDHAMARSQGLDTLLRDLTDRAVVQVPGAVACSVTVRRADRLMTLAGSTGLPSGLDLRQYENGSGPCVDAAESGDAQYCADLAEETRWPAYTEYALATGVRCVLALPLPIEGETGAALNLYGLVPGSLVQGLDAARAFAERAADAVNEALRIERRQASAADVRTALLSRSVIDQAVGMLMARERIDAHRALERLRRASQDRNVKLRDLCAQVVARASGGASHRGQ”, the protein production was “failed”.
In the case of “MTSTPPTPGPKLLEERSLGGILIHFLAIPTGVVGAGLLYLLATDEFTKRNARNALDWHLTVLLITAVTFGSVFTYAELTGQGVTDVSIFPSSVSTVAGIVTSALLMLWFAVTAWTFAVGLIAMVKAIFGTAWRYPFSLALVERFGSHINLSDRWPLVILGYIVLSPLLIWAVFFVPANDAIVILSAFGLLGLILGLTPLTGIAMYRHGKEHWLQDADQQSHVFAHVGLPILVAAIGYVVSWSFTQSVSPQGDAMYVFLAAFWISSIVYLIRWWTTSSE”, the protein production is reported as “failed”.
With “MTSVSGCGSVSLITNRSAFLGNGLQHRAVFLKPWSSSSLQSRSMVVEAKTKTSSEDRIARHSRIRKKVNGTTERPRLCVFRSNKHLYVQVIDDTKMHTLASASTKQKPISEEFDYTSGPTIEVAKKVGEVIAKSCLEKGITKVAFDRGGYPYHGRIEALAAAAREHGLQF” the protein production was “failed”.
In the case of “MTTATSERQKTLLFKAAERQWKEEFAGKETDIRKVDCNIYKGILYQLEIRQVFLDTSLSLKKLSALLETNQTYLSNVVNKYFGCNLKELVNTYRVEYAKELLCSRRCALTELPCSCGFASKSAFYSAFSRIVGVSPLSYQTQERRLEHHHHHH”, the protein production is reported as “not failed”.
With “MTTAYNHLCTAFTRLSRFEHLSAIAGWDMQTMMPAKGNLARSEAMAELNVLQHQILTAPQIGEWLKQAEQELLDEQSIDELKLANLREMHRHYHNAVLLPESLVEAKSLAGARCEHAWRQQRIANDWAGFAENLREVVKLSREEAKIRAEAAGTSGYDALLNLYEPGTNSADIDRIFGDLKQWLPALLQKVTTKQQSSEPCLIPQGPFDLEKQRQLGLSVMKVLGFDFNGGRVDVSVHPFCGGVPQDVRITTRYNNQEFLSALMGIVHETGHARYEQNLPREWLGQPIAHARSTAIHESQSLLFEMQLARSNEFLQVIHPLVIQQFGEQPAFAEHNFIALNQRVKTGLIRVDADEVSYPAHVILRYEIEKALIGGEIDVEDIPALWNEKMQQYLGINTEGDYRNGCMQDIHWTDGAFGYFPTYTLGAMYAAQLFHAARSAIPALDSHIANGNLAPLLNWLQQNIWQHGSRYPTAELITKATGEPLNPRYFRQHLERRYL” the protein production was “failed”.
For “MTTCGEFLVKQLEAWGVETVFGIPGVHTVELYRGLPGSRIRHVTPRHEQGAGFMADGYARVTGKPGVCFIITGPGMTNILTAMAQAYADSIPMLVISSVNERARLAHGNGYLHELPNQRNLVGNVCAFSHTLMSAEELPAVLARAFAVFDSERPRPVHIELPLDVITAPAEHLALRPRTVTSRPAPALAPLREAAARLRNAKKPLLLLGGGCVEAAAEARALAAALDAPTALTINAKGLLPADHPLLLGSNQSCVPVRELATEADVVLAIGTELGETDYDVVFDGGFALDGELIRIDIDPQQLMRNYTPSLAIHSDARLAMRVLLAELPGGEASPDSPGARRAAAVRQRLAEDFAGWSHYRQLFAAILAEWPDARFVGDSTQTVYSGNHLVDLDEPRRWFNASTGYGTLGYGLPAAIGAKLGEPGRPVVSLMGDGGLQFTLPELASAVEAKVGIVVLLWNNHGYGEIKRYMERREITPLGVDIYTPDFLAIARGFGCAAERARDLEHLRELLRGAPADRPLIVEVLQAAPFHP”, the protein production was “failed”.
In the case of “MTTEAPIWPAELFEDLDRNGPIPLYFQVAQRLEDGIRSGVLPPGARLENEISVAKHLNVSRPTVRRAIQEVVDKGLLVRRRGVGTQVVQSHVTRPVELTSFFNDLKNANLDPKTRVLEHRLLAASSAIAEKLGVSAGDEVLLIRRLRSTGDIPVAILENYLPPAFNDVSLDELEKGGLYDALRSRGVVLKIANQKIGARRAVGEESTLLDIEDGGPLLTVERVALDNSGQVIELGSHCYRPDMYNFETTLVAR”, the protein production is reported as “not failed”.
For “MTTETIQSNANLAPLPPHVPEHLVFDFDMYNPSNLSAGVQEAWAVLQESNVPDLVWTRCNGGHWIATRGQLIREAYEDYRHFSSECPFIPREAGEAYDFIPTSMDPPEQRQFRALANQVVGMPVVDKLENRIQELACSLIESLRPQGQCNFTEDYAEPFPIRIFMLLAGLPEEDIPHLKYLTDQMTRPDGSMTFAEAKEALYDYLIPIIEQRRQKPGTDAISIVANGQVNGRPITSDEAKRMCGLLLVGGLDTVVNFLSFSMEFLAKSPEHRQELIERPERIPAACEELLRRFSLVADGRILTSDYEFHGVQLKKGDQILLPQMLSGLDERENACPMHVDFSRQKVSHTTFGHGSHLCLGQHLARREIIVTLKEWLTRIPDFSIAPGAQIQHKSGIVSGVQALPLVWDPATTKAV”, the protein production was “not failed”.
For “MTTFHADSSITRTFWRYAIPSIAAMVVSGLYQIIDGIFVGHYIGFEGLAGINMAWPAICILGAIGVMVGMGTGSVMSIYRGENKLEKTKVALTTGFWLLAILSIIAISCIVLLAKDILLAQGAEGQNFAYAMDYINVLMFGGFFTACATALPMLVRNDESPNVATFLLVIGALINIVLDYVFIGVMGLGLSGAALATLMAQACVTVLGIGYFFTQRSSIQITLQEVLFSWNKAKQSLSLGASALVMYLYGSFVVAMHNALMMYYGSATTVGAYAIVGYLFMLYYLLAQGIAEGAQPPISYYFGARENKKVYQIFKIALKWVIITGIGWVTILNISPELTTALFTNGDKALIAETIVGIRYHLFAMFLDGMIVLITIYFLSVNEGKKAMVISISNIVIQLPFLLILPKWFGIDGVWLAMPVSNIALIICIAPMVWNHLKTQKIIKPLPLTSTSVMSH”, the protein production was “failed”.
For “MTTGVRRRMGVEERRQQLIGVALDLFSRRSPDEVSIDEIASAAGISRPLVYHYFPGKLSLYEAALQRASDDLADRFVEPRQGPLGARLLRVMGRYFDFVDEHGPGFSALMRGGPAVGSTTTNALVDSVRQAAYVQILSHLDVTEPPARLELVVRSWISLAESTALLWLDGRRIPRAELETQLVHDFAALMAVSAAYDEEMGALVRRVLADEPEDGPFGDLVDRLLALSAR”, the protein production was “not failed”.
For “MTTIAILSDIHGNMTAFSAVIQDAKAHQADEYWFLGDLFLPGPGSDKLWATLHGLKPTHIVKGNWDDDLFWVLDGPVDLSQPTDVYFSRLVAYLWPHLTAENLATIRNWPLHEVFEQDGLIVSLAHNLPDKNHGHALYPDQPQLNFDQIAPDSQIDLAVYGHTHQQLLRYTSNGQVILNPGSIGQAYSPRPHLQTTTYADYALLQLNDGAITDLDLRQVPYDVSAELSLAKQQQLPYPEVYTKLRHTGATSTHNAAYLKQFEQRHDYQQEVAEFLHKYRHQHLEHHHHHH”, the protein production was “failed”.
With “MTTIRVENLSKIFKKGKTEVKAVDNVSITIDSGMAFGVLGPSGHGKTTFLRLIAGLEEPTSGYIYFDNEAVSSPRRVMMSPEKRGIAMVFQNWALYPNMTVFDNIAFPLKLAKVPKDKIENKVKEVSEELGLSGVLNRYPKELSGGQMQRTAIARALVKDPKVLLLDEPFSNLDAQIRESARALVRKIQRERKLTTLIVSHDPADIFAIANKAGVIVNGKFAQIGTPTEIYEYPATDLIARLTGEINLIQAKIIENNAIIANLKVPLNNMELKGQSNIVIGLRPDDLTLSDTLLDKYIDMGIVKVKLVSYGAGIFKIVVSPITDENIDIIVDAEEPLETGIETHLLAKPNKVKIFDLNGSNLITSKTQIIK” the protein production was “failed”.
In the case of “MTTIVPTSEENPFLAVVRFTSQLAWADAGPEAAEPEITRLCREAEESMVAEKWLELSSLMVTSAELVSSKISEKDLECTYTIICSIVKNAKSPEQVLEMVKAIASKVAQQPSDKASLRLKILFNLYNLVDHPYARFQVYMKALTLAVDGKVTEYIVSSFKKIDNFLKEWNIDIKDQRELFLAIANVLKENKSLVNESLKFLTKYLATFSNEDAQVLDEAKEEAVRAVIEFVKASSIFQCDLLDLPAVAQLEKDAKYAPVYQLLKIFLTQRLNAYTEFQNANSGFLQSYGLSNEDCVTKMRLLSLVDLASDESGKIPYTSIKDTLQVNEQDVELWIVKAITAKLIESALPNVNLGQSNGNLSEQSLRLGSIITTIESNKVTEEGSQASSSSAAAIQGLSVR”, the protein production is reported as “failed”.
For “MTTKLDPEALNVSEEARERGTGYLNVALFGVDSRDNELEKDTRSDTIMIASLNRETMEVKISSVYRDTLLEQSDGTLNKANAAYSFGGPETAVAMLNKNLDMDIEHYVTVNFNSLIDVIDAVGGVEIDVQEEEIPYICGYAMEIMRVTGRESAGVTEPGVQTLNGIQATAYARIRYTAGDDFKRAERQRDVLTKIVGKLQGASLAQINKIIDKVFPEVSTNFTLAEILEYAKDAFDYKLGETIGFPFDKTTDTLANIGSVVIPVTLDKNVEQLHKFFYGEGDTYSPSSTVNTISGKIVAKAGDRQADTDEDSQGIMQQPDESYTGGGSSGGTKTPSSGGTSGGSSQPTPTPTPTPTPTPEPDPQPQPDPGGDDGSGGSGGDTSGGGAEGTPDAGTQLEHHHHHH”, the protein production was “failed”.
With “MTTLGIVSDTHGYFHPNLADDLSGVDRILHAGDVGDPAILDGLEAVAPVTAVWGNIDDASLRRRLAEHERFTVAGLDVWMTHIAGRPGRWQDGMGTKLEATPPDVLVCGHSHILQVERVAALDDMLYVNPGAAGKQGFHQTKTCLRLAVEDGRATEAAVVHLDPDASPAQAPDP” the protein production was “failed”.
In the case of “MTTLTAQQIACVYAWLAQLFSRELDDEQLTQIASAQMAEWFSLLKNEPPLTAAVNELENRIATLTVRDDARLELAADFCGLFLMTDKQAALPYASAYKQDEQEIKRLLVEAGMETSGNFNEPADHLAIYLELLSHLHFSLGEGTVPARRIDSLRQKTLTALWQWLPEFVARCRQYDSFGFYAALSQLLLVLVECDHQNR”, the protein production is reported as “failed”.
For “MTTNPYTGEREAGKSAIGAGLGSLVGAGIGALSSSKKDRGKGALIGAAAGAALGGGVGYYMDVQEANVRDKMRGTGVSVTRSGDNIILNMPNNVTFDSSSATLKPAGANTLTGVAMVLKEYPKTAVNVIGYTDSTGGHDLNMRLSQQRADSVASALITQGVDASRIRTQGLGPANPIASNSTAEGKAQNRRVEITLSPLLEHHHHHH”, the protein production was “not failed”.
With “MTTNRYMKGIMWAMLASTLWGVSGTVMQFVSQNQAIPADWFLSVRTLSAGIILLAIGFVQQGTKIFKVFRSWASVGQLVAYATVGLMANMYTFYISIERGTAAAATILQYLSPLFIVLGTLLFKRELPLRTDLIAFAVSLLGVFLAITKGNIHELAIPMDALVWGILSGVTAALYVVLPRKIVAENSPVVILGWGTLIAGILFNLYHPIWIGAPKITPTLVTSIGAIVLIGTIFAFLSLLHSLQYAPSAVVSIVDAVQPVVTFVLSIIFLGLQVTWVEILGSLLVIVAIYILQQYRSDPASD” the protein production was “failed”.
